This note sets out measurements from doi:10.1101/2025.08.27.672506.

Experiment [1] concerns the target wild-type H1/Cal09 HA ectodomain with the Foldon trimerization tag (influenza A virus A/California/04/2009 (H1N1) | T4). Nature of the experiment: SEC.
For experiment [2] the target is unchanged. The experiment is described as follows: cryo-EM 2D classification.
Experiment [3] addresses wild-type ectodomain of HA from /turkey/Ontario/6118/1968 (H8N4) (influenza A virus /turkey/Ontario/6118/1968 (H8N4)). The experiment is described as follows: SEC.
Experiment [4] deals with wild-type ectodomain of HA from A/gull/Maryland/704/1977 (H13N6) (influenza A virus A/gull/Maryland/704/1977 (H13N6)). Nature of the experiment: SEC.
Experiment [5] concerns the target wild-type ectodomain of HA from A/swine/Hong Kong/2106/98 (H9N2) (influenza A virus A/swine/Hong Kong/2106/98 (H9N2)). Nature of the experiment: SEC.
The target of experiment [6] is wild-type H1/Mal07 HA ectodomain with the Foldon tag (influenza A virus A/Malaysia/1706215/2007 (H1N1) | T4). The experiment is described as follows: SEC.
The target in experiment [7] is wild-type H9/HK98 HA ectodomain with the Foldon tag (influenza A virus A/swine/Hong Kong/2106/98 (H9N2) | T4). Nature of the experiment: SEC.

“wild-type H1/Cal09 HA ectodomain with the Foldon trimerization tag”: the stoichiometry N in experiment [1] and in experiment [2] was 3 throughout.
Regarding “wild-type ectodomain of HA from /turkey/Ontario/6118/1968 (H8N4) (domain or fragment)”, in experiment [3], the stoichiometry N was determined as 3.
In experiment [4], “wild-type ectodomain of HA from A/gull/Maryland/704/1977 (H13N6) (domain or fragment)” returned a stoichiometry N of 3.
“wild-type ectodomain of HA from A/swine/Hong Kong/2106/98 (H9N2) (domain or fragment)” registered a stoichiometry N in experiment [5] of 3.
As to “wild-type H1/Mal07 HA ectodomain with the Foldon tag”, the stoichiometry N in experiment [6] came out at 3.
“wild-type H9/HK98 HA ectodomain with the Foldon tag” displayed a stoichiometry N in experiment [7] of 3.
